Experimental findings from PMC11342776, “Protein kinase Hsl1 phosphorylates Pah1 to inhibit phosphatidate phosphatase activity and regulate lipid synthesis in Saccharomyces cerevisiae” (The Journal of Biological Chemistry, 2024) are described below.

Substrate in this data set: Nc1ncnc2c1ncn2[C@@H]1O[C@H](COP(=O)(O)OP(=O)(O)OP(=O)(O)O)[C@@H](O)[C@H]1O
Briefly: purified protein. The data set is classed as biochemical, Saccharomyces cerevisiae. As to conditions: 500 nM Pah1 as protein substrate, 10 mM MgCl2, 2 mM DTT, pH 7.5, 30 °C, labelled compound.

Usually Km stands for the substrate concentration at which the rate is half of its maximum.

B1: Hsl1 (Saccharomyces cerevisiae S288C) (protein)
chain: MTGHVSKTSHVPKGRPSSLAKKAAKRAMAKVNSNPKRASGHLERVVQSVNDATKRLSQPDSTVSVATKSSKRKSRDTVGPWKLGKTLGKGSSGRVRLAKNMETGQLAAIKIVPKKKAFVHCSNNGTVPNSYSSSMVTSNVSSPSIASREHSNHSQTNPYGIEREIVIMKLISHTNVMALFEVWENKSELYLVLEYVDGGELFDYLVSKGKLPEREAIHYFKQIVEGVSYCHSFNICHRDLKPENLLLDKKNRRIKIADFGMAALELPNKLLKTSCGSPHYASPEIVMGRPYHGGPSDVWSCGIVLFALLTGHLPFNDDNIKKLLLKVQSGKYQMPSNLSSEARDLISKILVIDPEKRITTQEILKHPLIKKYDDLPVNKVLRKMRKDNMARGKSNSDLHLLNNVSPSIVTLHSKGEIDESILRSLQILWHGVSRELITAKLLQKPMSEEKLFYSLLLQYKQRHSISLSSSSENKKSATESSVNEPRIEYASKTANNTGLRSENNDVKTLHSLEIHSEDTSTVNQNNAITGVNTEINAPVLAQKSQFSINTLSQPESDKAEAEAVTLPPAIPIFNASSSRIFRNSYTSISSRSRRSLRLSNSRLSLSASTSRETVHDNEMPLPQLPKSPSRYSLSRRAIHASPSTKSIHKSLSRKNIAATVAARRTLQNSASKRSLYSLQSISKRSLNLNDLLVFDDPLPSKKPASENVNKSEPHSLESDSDFEILCDQILFGNALDRILEEEEDNEKERDTQRQRQNDTKSSADTFTISGVSTNKENEGPEYPTKIEKNQFNMSYKPSENMSGLSSFPIFEKENTLSSSYLEEQKPKRAALSDITNSFNKMNKQEGMRIEKKIQREQLQKKNDRPSPLKPIQHQELRVNSLPNDQGKPSLSLDPRRNISQPVNSKVESLLQGLKFKKEPASHWTHERGSLFMSEHVEDEKPVKASDVSIESSYVPLTTVATSSRDPSVLAESSTIQKPMLSLPSSFLNTSMTFKNLSQILADDGDDKHLSVPQNQSRSVAMSHPLRKQSAKISLTPRSNLNANLSVKRNQGSPGSYLSNDLDGISDMTFAMEIPTNTFTAQAIQLMNNDTDNNKINTSPKASSFTKEKVIKSAAYISKEKEPDNSDTNYIPDYTIPNTYDEKAINIFEDAPSDEGSLNTSSSESDSRASVHRKAVSIDTMATTNVLTPATNVRVSLYWNNNSSGIPRETTEEILSKLRLSPENPSNTHMQKRFSSTRGSRDSNALGISQSLQSMFKDLEEDQDGHTSQADILESSMSYSKRRPSEESVNPKQRVTMLFDEEEEESKKVGGGKIKEEHTKLDNKISEESSQLVLPVVEKKENANNTENNYSKIPKPSTIKVTKDTAMESNTQTHTKKPILKSVQNVEVEEAPSSDKKNWFVKLFQNFSSHNNATKASKNHVTNISFDDAHMLTLNEFNKNSIDYQLKNLDHKFGRKVVEYDCKFVKGNFKFKIKITSTPNASTVITVKKRSKHSNTSSNKAFEKFNDDVERVIRNAGRS
notes: full-length with C-terminal TAP tag kept (chromosomal HSL1-TAP); IgG-Sepharose purified from S. cerevisiae, endogenously phosphorylated; ~190 kDa on gel
B1: the Michaelis-Menten constant (Km) stood at 31 µM.
